Measured values as given in the supplement of paper PMC5998384.

How the values were obtained:
HeLa Kyoto [1] = test: melting temperature (median over replicates), in situ; higher = more thermally stable
HeLa Kyoto [2] = test: thermal stability score vs G1/S (z-score of summed log2 fold changes over temperatures); higher = more thermally stable than in G1/S
HeLa Kyoto [3] = test: solubility change mitosis vs G1/S (difference of NP-40 vs SDS log2 ratios) (log2 ratio difference); higher = more soluble in mitosis
HeLa Kyoto [4] = test: solubility in G1/S (NP-40 vs SDS abundance) (log2 ratio); higher = more soluble; conditions: cell cycle stage: G1/S
[5] = cell cycle stage: early G1 (4.5 h after nocodazole release)
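Throughout, for melting temperature (median over replicates), in situ: HeLa Kyoto cells synchronized by double thymidine or nocodazole block, proteins quantified by TMT10plex mass spectrometry, three independent biological replicates.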
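Throughout, for solubility change mitosis vs G1/S (difference of NP-40 vs SDS log2 ratios): synchronized HeLa Kyoto cells (double thymidine block for G1/S, nocodazole release for mitosis), protein amounts in NP-40 versus SDS lysates quantified by mass spectrometry, three biological replicates.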
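Throughout, for solubility in G1/S (NP-40 vs SDS abundance): HeLa Kyoto cells arrested at G1/S by double thymidine block, proteins quantified by TMT10plex mass spectrometry in mild NP-40 versus SDS extracts, three biological replicates.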
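Throughout, for thermal stability score vs G1/S (z-score of summed log2 fold changes over temperatures): synchronized HeLa Kyoto cells, proteins quantified by TMT10plex mass spectrometry, three biological replicates, mitosis taken 0.5 h after nocodazole release, G1/S directly after double thymidine block.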

Row | Sequence | melting temperature (HeLa Kyoto [1]; cell cycle stage: G1/S) | melting temperature (HeLa Kyoto [1]; cell cycle stage: mitosis) | thermal stability score (HeLa Kyoto [2]; [5]) | thermal stability score (HeLa Kyoto [2]; cell cycle stage: mitosis) | solubility change mitosis (log2) (HeLa Kyoto [3]) | solubility in G1/S (log2) (HeLa Kyoto [4])
1 | MELSDANLQTLTEYLKKTLDPDPAIRRPAEKFLESVEGNQNYPLLLLTLLEKSQDNVIKVCASVTFKNYIKRNWRIVEDEPNKICEADRVAIKANIVHLMLSSPEQIQKQLSDAISIIGREDFPQKWPDLLTEMVNRFQSGDFHVINGVLRTAHSLFKRYRHEFKSNELWTEIKLVLDAFALPLTNLFKATIELCSTHANDASALRILFSSLILISKLFYSLNFQDLPEFFEDNMETWMNNFHTLLTLDNKLLQTDDEEEAGLLELLKSQICDNAALYAQKYDEEFQRYLPRFVTAIWNLLVTTGQEVKYDLLVSNAIQFLASVCERPHYKNLFEDQNTLTSICEKVIVPNMEFRAADEEAFEDNSEEYIRRDLEGSDIDTRRRAACDLVRGLCKFFEGPVTGIFSGYVNSMLQEYAKNPSVNWKHKDAAIYLVTSLASKAQTQKHGITQANELVNLTEFFVNHILPDLKSANVNEFPVLKADGIKYIMIFRNQVPKEHLLVSIPLLINHLQAESIVVHTYAAHALERLFTMRGPNNATLFTAAEIAPFVEILLTNLFKALTLPGSSENEYIMKAIMRSFSLLQEAIIPYIPTLITQLTQKLLAVSKNPSKPHFNHYMFEAICLSIRITCKANPAAVVNFEEALFLVFTEILQNDVQEFIPYVFQVMSLLLETHKNDIPSSYMALFPHLLQPVLWERTGNIPALVRLLQAFLERGSNTIASAAADKIPGLLGVFQKLIASKANDHQGFYLLNSIIEHMPPESVDQYRKQIFILLFQRLQNSKTTKFIKSFLVFINLYCIKYGALALQEIFDGIQPKMFGMVLEKIIIPEIQKVSGNVEKKICAVGITKLLTECPPMMDTEYTKLWTPLLQSLIGLFELPEDDTIPDEEHFIDIEDTPGYQTAFSQLAFAGKKEHDPVGQMVNNPKIHLAQSLHKLSTACPGRVPSMVSTSLNAEALQYLQGYLQAASVTLL [CSE1L] | 50.4 °C | 49.5 °C | 1.44 | 2.55 | -0.225 | -0.0863
2 | MELVAGCYEQVLFGFAVHPEPEACGDHEQWTLVADFTHHAHTASLSAVAVNSRFVVTGSKDETIHIYDMKKKIEHGALVHHSGTITCLKFYGNRHLISGAEDGLICIWDAKKWECLKSIKAHKGQVTFLSIHPSGKLALSVGTDKTLRTWNLVEGRSAFIKNIKQNAHIVEWSPRGEQYVVIIQNKIDIYQLDTASISGTITNEKRISSVKFLSESVLAVAGDEEVIRFFDCDSLVCLCEFKAHENRVKDMFSFEIPEHHVIVSASSDGFIKMWKLKQDKKVPPSLLCEINTNARLTCLGVWLDKVADMKESLPPAAEPSPVSKEQSKIGKKEPGDTVHKEEKRSKPNTKKRGLTGDSKKATKESGLISTKKRKMVEMLEKKRKKKKIKTMQ [PAK1IP1] | 56.5 °C | 53.8 °C | -1.32 | -5.78 | 0.614 | -1.64
3 | MEMFTFLLTCIFLPLLRGHSLFTCEPITVPRCMKMAYNMTFFPNLMGHYDQSIAAVEMEHFLPLANLECSPNIETFLCKAFVPTCIEQIHVVPPCRKLCEKVYSDCKKLIDTFGIRWPEELECDRLQYCDETVPVTFDPHTEFLGPQKKTEQVQRDIGFWCPRHLKTSGGQGYKFLGIDQCAPPCPNMYFKSDELEFAKSFIGTVSIFCLCATLFTFLTFLIDVRRFRYPERPIIYYSVCYSIVSLMYFIGFLLGDSTACNKADEKLELGDTVVLGSQNKACTVLFMLLYFFTMAGTVWWVILTITWFLAAGRKWSCEAIEQKAVWFHAVAWGTPGFLTVMLLAMNKVEGDNISGVCFVGLYDLDASRYFVLLPLCLCVFVGLSLLLAGIISLNHVRQVIQHDGRNQEKLKKFMIRIGVFSGLYLVPLVTLLGCYVYEQVNRITWEITWVSDHCRQYHIPCPYQAKAKARPELALFMIKYLMTLIVGISAVFWVGSKKTCTEWAGFFKRNRKRDPISESRRVLQESCEFFLKHNSKVKHKKKHYKPSSHKLKVISKSMGTSTGATANHGTSAVAITSHDYLGQETLTEIQTSPETSMREVKADGASTPRLREQDCGEPASPAASISRLSGEQVDGKGQAGSVSESARSEGRISPKSDITDTGLAQSNNLQVPSSSEPSSLKGSTSLLVHPVSGVRKEQGGGCHSDT [FZD6] | 54.7 °C | 55.6 °C | -1.37 | -2.82 | 0.0773 | -0.0341
4 | MEMKKKINLELRNRSPEEVTELVLDNCLCVNGEIEGLNDTFKELEFLSMANVELSSLARLPSLNKLRKLELSDNIISGGLEVLAEKCPNLTYLNLSGNKIKDLSTVEALQNLKNLKSLDLFNCEITNLEDYRESIFELLQQITYLDGFDQEDNEAPDSEEEDDEDGDEDDEEEEENEAGPPEGYEEEEEEEEEEDEDEDEDEDEAGSELGEGEEEVGLSYLMKEEIQDEEDDDDYVEEGEEEEEEEEGGLRGEKRKRDAEDDGEEEDD [ANP32E] | 46.5 °C | 50.1 °C | 2.17 | 4.82 | 0.1 | -0.46
5 | MEMTEMTGVSLKRGALVVEDNDSGVPVEETKKQKLSECSLTKGQDGLQNDFLSISEDVPRPPDTVSTGKGGKNSEAQLEDEEEEEEDGLSEECEEEESESFADMMKHGLTEADVGITKFVSSHQGFSGILKERYSDFVVHEIGKDGRISHLNDLSIPVDEEDPSEDIFTVLTAEEKQRLEELQLFKNKETSVAIEVIEDTKEKRTIIHQAIKSLFPGLETKTEDREGKKYIVAYHAAGKKALANPRKHSWPKSRGSYCHFVLYKENKDTMDAINVLSKYLRVKPNIFSYMGTKDKRAITVQEIAVLKITAQRLAHLNKCLMNFKLGNFSYQKNPLKLGELQGNHFTVVLRNITGTDDQVQQAMNSLKEIGFINYYGMQRFGTTAVPTYQVGRAILQNSWTEVMDLILKPRSGAEKGYLVKCREEWAKTKDPTAALRKLPVKRCVEGQLLRGLSKYGMKNIVSAFGIIPRNNRLMYIHSYQSYVWNNMVSKRIEDYGLKPVPGDLVLKGATATYIEEDDVNNYSIHDVVMPLPGFDVIYPKHKIQEAYREMLTADNLDIDNMRHKIRDYSLSGAYRKIIIRPQNVSWEVVAYDDPKIPLFNTDVDNLEGKTPPVFASEGKYRALKMDFSLPPSTYATMAIREVLKMDTSIKNQTQLNTTWLR [PUS7] | 52.3 °C | 52.2 °C | 0.213 | 0.4 | -0.141 | 0.055
6 | MENEPDHENVEQSLCAKTSEEELNKSFNLEASLSKFSYIDMDKELEFKNDLIDDKEFDIPQVDTPPTLESILNETDDEDESFILEDPTLLNIDTIDSHSYDTSSVASSDSGDRTNLKRKKKLPDSFSLHGSVMRHSLLKGISAQIVSAADKVDAGLPTAIAVSSLIAVGTSHGLALIFGKDQNQALRLCLGSTSVGGQYGAISALSINNDCSRLLCGFAKGQITMWDLASGKLLRSITDAHPPGTAILHIKFTDDPTLAICNDSGGSVFELTFKRVMGVRTCESRCLFSGSKGEVCCIEPLHSKPELKDHPITQFSLLAMASLTKILVIGLKPSLKVWMTFPYGRMDPSSVPLLAWHFVAVQNYVNPMLAFCRGDVVHFLLVKRDESGAIHVTKQKHLHLYYDLINFTWINSRTVVLLDSVEKLHVIDRQTQEELETVEISEVQLVYNSSHFKSLATGGNVSQALALVGEKACYQSISSYGGQIFYLGTKSVYVMMLRSWRERVDHLLKQDCLTEALALAWSFHEGKAKAVVGLSGDASKRKAIVADRMVEILFHYADRALKKCPDQGKIQVMEQHFQDMVPVIVDYCLLLQRKDLLFSQMYDKLSENSVAKGVFLECLEPYILSDKLVGITPQVMKDLIVHFQDKKLMENVEALIVHMDITSLDIQQVVLMCWENRLYDAMIYVYNRGMNEFISPMEKLFRVIAPPLNAGKTLTDEQVVMGNKLLVYISCCLAGRAYPLGDIPEDLVPLVKNQVFEFLIRLHSAEASPEEEIYPYIRTLLHFDTREFLNVLALTFEDFKNDKQAVEYQQRIVDILLKVMVENSDFTPSQVGCLFTFLARQLAKPDNTLFVNRTLFDQVLEFLCSPDDDSRHSERQQVLLELLQAGGIVQFEESRLIRMAEKAEFYQICEFMYEREHQYDKIIDCYLRDPLREEEVFNYIHNILSIPGHSAEEKQSVWQKAMDHIEELVSLKPCKAAELVATHFSGHIETVIKKLQNQVLLFKFLRSLLDPREGIHVNQELLQISPCITEQFIELLCQFNPTQVIETLQVLECYRLEETIQITQKYQLHEVTAYLLEKKGDIHGAFLIMLERLQSKLQEVTHQGENTKEDPSLKDVEDTMVETIALCQRNSHNLNQQQREALWFPLLEAMMAPQKLSSSAIPHLHSEALKSLTMQVLNSMAAFIALPSILQRILQDPVYGKGKLGEIQGLILGMLDTFNYEQTLLETTTSLLNQDLHWSLCNLRASVTRGLNPKQDYCSICLQQYKRRQEMADEIIVFSCGHLYHSFCLQNKECTVEFEGQTRWTCYKCSSSNKVGKLSENSSEIKKGRITPSQVKMSPSYHQSKGDPTAKKGTSEPVLDPQQIQAFDQLCRLYRGSSRLALLTELSQNRSSESYRPFSGSQSAPAFNSIFQNENFQLQLIPPPVTED [VPS8] | 52.2 °C | 50.1 °C | 0.78 | 1.34 | -0.056 | -0.292
7 | MENHKSNNKENITIVDISRKINQLPEAERNLLENGSVYVGLNAALCGLIANSLFRRILNVTKARIAAGLPMAGIPFLTTDLTYRCFVSFPLNTGDLDCETCTITRSGLTGLVIGGLYPVFLAIPVNGGLAARYQSALLPHKGNILSYWIRTSKPVFRKMLFPILLQTMFSAYLGSEQYKLLIKALQLSEPGKEIH [TMEM126A] | 52.8 °C | 52.4 °C | -0.173 | -0.978 | -0.094 | 0.245
8 | MEPEEERIRYSQRLRGTMRRRYEDDGISDDEIEGKRTFDLEEKLHTNKYNANFVTFMEGKDFNVEYIQRGGLRDPLIFKNSDGLGIKMPDPDFTVNDVKMCVGSRRMVDVMDVNTQKGIEMTMAQWTRYYETPEEEREKLYNVISLEFSHTRLENMVQRPSTVDFIDWVDNMWPRHLKESQTESTNAILEMQYPKVQKYCLMSVRGCYTDFHVDFGGTSVWYHIHQGGKVFWLIPPTAHNLELYENWLLSGKQGDIFLGDRVSDCQRIELKQGYTFVIPSGWIHAVYTPTDTLVFGGNFLHSFNIPMQLKIYNIEDRTRVPNKFRYPFYYEMCWYVLERYVYCITNRSHLTKEFQKESLSMDLELNGLESGNGDEEAVDREPRRLSSRRSVLTSPVANGVNLDYDGLGKTCRSLPSLKKTLAGDSSSDCSRGSHNGQVWDPQCAPRKDRQVHLTHFELEGLRCLVDKLESLPLHKKCVPTGIEDEDALIADVKILLEELANSDPKLALTGVPIVQWPKRDKLKFPTRPKVRVPTIPITKPHTMKPAPRLTPVRPAAASPIVSGARRRRVRCRKCKACVQGECGVCHYCRDMKKFGGPGRMKQSCVLRQCLAPRLPHSVTCSLCGEVDQNEETQDFEKKLMECCICNEIVHPGCLQMDGEGLLNEELPNCWECPKCYQEDSSEKAQKRKMEESDEEAVQAKVLRPLRSCDEPLTPPPHSPTSMLQLIHDPVSPRGMVTRSSPGAGPSDHHSASRDERFKRRQLLRLQATERTMVREKENNPSGKKELSEVEKAKIRGSYLTVTLQRPTKELHGTSIVPKLQAITASSANLRHSPRVLVQHCPARTPQRGDEEGLGGEEEEEEEEEEEDDSAEEGGAARLNGRGSWAQDGDESWMQREVWMSVFRYLSRRELCECMRVCKTWYKWCCDKRLWTKIDLSRCKAIVPQALSGIIKRQPVSLDLSWTNISKKQLTWLVNRLPGLKDLLLAGCSWSAVSALSTSSCPLLRTLDLRWAVGIKDPQIRDLLTPPADKPGQDNRSKLRNMTDFRLAGLDITDATLRLIIRHMPLLSRLDLSHCSHLTDQSSNLLTAVGSSTRYSLTELNMAGCNKLTDQTLIYLRRIANVTLIDLRGCKQITRKACEHFISDLSINSLYCLSDEKLIQKIS [KDM2A] | 52.3 °C | 50.5 °C | 0.0512 | -0.325 | 0.642 | -1.07
